Data taken from PMC8501640, “Altered Env conformational dynamics as a mechanism of resistance to peptide-triazole HIV-1 inactivators” (Retrovirology, 2021).
pEC50, pKd: −log10 of the molar value.

Assays:
[1] = target: HIV-1 HxBc2 Env S143N (HIV-1 (HxBc2 strain)) (UniProt P04578)
[2] = target: HIV-1 HxBc2 Env V255T (HIV-1 (HxBc2 strain)) (UniProt P04578)
[3] = target: HIV-1 HxBc2 Env V255T/S143N (HIV-1 (HxBc2 strain)) (UniProt P04578)
[4] = target: HIV-1 HxBc2 gp120 V255I, monomeric (HIV-1 (HxBc2 strain)) (UniProt P04578)
[5] = target: HIV-1 HxBc2 gp120 V255I/S143N, monomeric (HIV-1 (HxBc2 strain)) (UniProt P04578)
[6] = target: HIV-1 NL4-3 Env S143N (HIV-1 (NL4-3 strain))
[7] = target: HIV-1 NL4-3 Env V255I (HIV-1 (NL4-3 strain))
[8] = target: HIV-1 NL4-3 Env V255I/S143N (HIV-1 (NL4-3 strain))
[9] = target: HIV-1 NL4-3 Env V255T (HIV-1 (NL4-3 strain))
[10] = target: HIV-1 NL4-3 Env V255T/S143N (HIV-1 (NL4-3 strain))
[11] = target: HIV-1 HxBc2 gp120, wild type, monomeric (HIV-1 (HxBc2 strain)) (UniProt P04578); experiment: ITC
[12] = target: HIV-1 HxBc2 gp120, wild type, monomeric (HIV-1 (HxBc2 strain)) (UniProt P04578); experiment: SPR
[13] = target: HIV-1 HxBc2 gp120 V255I, monomeric (HIV-1 (HxBc2 strain)) (UniProt P04578); experiment: ITC; VP-ITC, 25 °C, 1 × PBS pH 7.4; 60–100 µM PT titrated in 8 µL steps into 2–8 µM monomeric HxBc2 gp120; single site-binding model
[14] = target: HIV-1 HxBc2 gp120 V255I/S143N, monomeric (HIV-1 (HxBc2 strain)) (UniProt P04578); experiment: as above
[15] = target: HIV-1 HxBc2 gp120 V255I, monomeric (HIV-1 (HxBc2 strain)) (UniProt P04578); experiment: SPR; Biacore 3000, 25 °C, PBS-P (10 mM phosphate, 150 mM NaCl, pH 7.4, 0.005% P-20); gp120 monomers amine-coupled to CM5 chip (1800–2200 RU), analytes flowed at 50 µL/min; AAR029b and sCD4 fitted to a Langmuir 1:1 model, KR13 to a three-state binding/isomerization model
[16] = target: HIV-1 HxBc2 gp120 V255I/S143N, monomeric (HIV-1 (HxBc2 strain)) (UniProt P04578); experiment: as above
HxBc2 gp120 WT monomer = HxBc2 gp120 WT monomer (Human immunodeficiency virus type 1 group M subtype B, UniProt P04578); experiment: Isothermal titration calorimetry, WT gp120; assay type: binding, HIV-1; settings: 25 °C
Method: (§1) Heats were obtained at 25 °C by injection of 8 μL of PT (100 μM) into a sample cell of a VP-ITC containing 1.4 mL recombinant HxBc2 gp120 (6–8 μM). Solid lines represent fits to a single site binding model.
(§2) The resulting heat changes upon injection were integrated over a time range of 240 s, and the obtained values were fit to a standard single site-binding model using Origin® software.

[17] = target: HxBc2 gp120 V255I monomer (Human immunodeficiency virus type 1 group M subtype B, UniProt P04578, V255I); experiment: Isothermal titration calorimetry, V255I gp120; assay type: binding, HIV-1
Method: as §1, §2

[18] = target: HxBc2 gp120 V255I/S143N monomer (Human immunodeficiency virus type 1 group M subtype B, UniProt P04578, S143N/V255I); experiment: Isothermal titration calorimetry, V255I/S143N gp120; assay type: binding, HIV-1; settings: 25 °C
Method: as §1, §2

[19] = target: HIV-1 HxBc2 gp120 WT monomer (Human immunodeficiency virus type 1 group M subtype B, UniProt P04578); experiment: Surface plasmon resonance, WT gp120; assay type: binding
Method: (§3) SPR experiments were performed on a Biacore 3000 biosensor (Global Cytiva Lifesciences) at 25 °C using PBS-P (10 mM Phosphate, 150 mM NaCl, pH 7.4, 0.005% P-20) as the running buffer. A CM5 sensor chip was docked and derivatized by amine coupling with HIV-1HxBc2 WT and mutant gp120 subunits using freshly prepared 1:1 50 mM NHS (N-hydroxysuccinamide):200 mM EDC (1-ethyl-3-(3-(dimethylamino)propyl) carbodiimide). […] The equilibrium dissociation constant was calculated as KD = k−1/k1.
(§4) Rate constants k1 and k-1 are defined as they are in the 1:1 binding model, while k2 and k-2 are first order rate constants describing isomerization and de-isomerization, respectively. Equations describing the time course of the interactions can be found in Additional file 1: Method S1. For the fit, it was assumed that the states Env·PT and Env·PT^∗ had the same SPR signal. Rate constants were determined using a least-squares gradient-step algorithm coded in Visual Basic and implemented through Microsoft Excel.

[20] = target: HIV-1 HxBc2 gp120 V255I monomer (Human immunodeficiency virus type 1 group M subtype B, UniProt P04578, V255I); experiment: Surface plasmon resonance, V255I gp120; assay type: binding
Method: as §3, §4

[21] = target: HIV-1 HxBc2 gp120 V255I/S143N monomer (Human immunodeficiency virus type 1 group M subtype B, UniProt P04578, S143N/V255I); experiment: Surface plasmon resonance, V255I/S143N gp120; assay type: binding
Method: as §3, §4

CEM-GFP cells = experiment: WST-1 cytotoxicity assay; assay type: cell-based
Method: The cytotoxicity was determined on CEM-GFP cells via a colorimetric assay to measure the relative proliferation rates of cells in culture. […] After 18 h of incubation, the media containing compounds were discarded and treated with 10% (v/v) WST-1 (a tetrazolium salt) in fresh media for one hour at 37 °C. The cell viability was determined by measuring the absorbance at 450 nm using a Tecan Infinite F50 plate reader.
Figure S1. […] Data represent means and standard deviations of three independent experiments performed in triplicate.

BaL.01 viruses = tested on: BaL.01 viruses; set-up: method as in PMID 24330857, PMID 26331669; settings: ref [16], [21], read-out: EC50 of induced gp120 shedding; cited from earlier work
[22] = de-isomerization, three-state model
[23] = isomerization, three-state model
[24] = V255I and V255I/S143N vs WT gp120

KR13, linear peptide triazole thiol
IC50 of inhibition of single-round infection of HOS.T4.X4 cells by HIV-1 pseudotyped with HxBc2 Env (luciferase) [1]: 1.4 nM
IC50 of inhibition of single-round infection of HOS.T4.X4 cells by HIV-1 pseudotyped with HxBc2 Env (luciferase) [2]: 330 nM
IC50 of inhibition of single-round infection of HOS.T4.X4 cells by HIV-1 pseudotyped with HxBc2 Env (luciferase) [3]: 7.1 µM
IC50 of inhibition of single-round infection of HOS.T4.X4 cells by HIV-1 pseudotyped with HxBc2 Env (luciferase) [4]: 91 nM
IC50 of inhibition of single-round infection of HOS.T4.X4 cells by HIV-1 pseudotyped with HxBc2 Env (luciferase) [5]: 4.6 µM
IC50 of inhibition of single-round infection of HOS.T4.X4 cells by HIV-1 pseudotyped with NL4-3 Env (luciferase) [6]: 3.5 nM
IC50 of inhibition of single-round infection of HOS.T4.X4 cells by HIV-1 pseudotyped with NL4-3 Env (luciferase) [7]: 120 nM
IC50 of inhibition of single-round infection of HOS.T4.X4 cells by HIV-1 pseudotyped with NL4-3 Env (luciferase) [8]: 3.7 µM
IC50 of inhibition of single-round infection of HOS.T4.X4 cells by HIV-1 pseudotyped with NL4-3 Env (luciferase) [9]: 360 nM
IC50 of inhibition of single-round infection of HOS.T4.X4 cells by HIV-1 pseudotyped with NL4-3 Env (luciferase) [10]: 6.2 µM
pKd [11]: 7.80
dH [11]: -19 kcal/mol
stoichiometry N [11]: 1.1
pKd [12]: 8.96
k1 (association step of the three-state model) [12]: 290000 M⁻¹ s⁻¹
k2 (isomerization step of the three-state model) [12]: 0.007 s⁻¹
k-1 (dissociation step of the three-state model) [12]: 0.0096 s⁻¹
k-2 (de-isomerization step of the three-state model) [12]: 0.00025 s⁻¹
dH [13]: -13 kcal/mol
stoichiometry N [13]: 1
dH [14]: -12 kcal/mol
stoichiometry N [14]: 1.1
k1 (association step of the three-state model) [15]: 230000 M⁻¹ s⁻¹
k2 (isomerization step of the three-state model) [15]: 0.0084 s⁻¹
k-1 (dissociation step of the three-state model) [15]: 0.014 s⁻¹
k-2 (de-isomerization step of the three-state model) [15]: 0.00072 s⁻¹
k1 (association step of the three-state model) [16]: 280000 M⁻¹ s⁻¹
k2 (isomerization step of the three-state model) [16]: 0.009 s⁻¹
k-1 (dissociation step of the three-state model) [16]: 0.018 s⁻¹
k-2 (de-isomerization step of the three-state model) [16]: 0.001 s⁻¹

CC[C@H](C)[C@H](NC(=O)[C@@H](N)CCCNC(=N)N)C(=O)N[C@@H](CC(N)=O)C(=O)N[C@@H](CC(N)=O)C(=O)N[C@H](C(=O)N1CC(n2cc([C]34[CH]5[CH]6[CH]7[CH]3[Fe]6754389%10[CH]4[CH]3[CH]8[CH]9[CH]4%10)nn2)C[C@H]1C(=O)N[C@@H](Cc1c[nH]c2ccccc12)C(=O)N[C@@H](CO)C(=O)N[C@@H](CCC(=O)O)C(=O)N[C@@H](C)C(=O)N[C@@H](CCSC)C(=O)N[C@@H](CCSC)C(=O)NCCC(=O)N[C@@H](CCC(N)=O)C(=O)NCCC(=O)N[C@@H](CS)C(N)=O)[C@@H](C)CC (stereo partly drawn) [KR13]
ITC binding stoichiometry n (HxBc2 gp120 WT monomer): 1.1 ± 0.01
ITC −TΔS (HxBc2 gp120 WT monomer): 7.8 ± 3.0 kcal/mol
ITC binding stoichiometry n ([17]; V255I gp120 (HxBc2), 25 °C): 1.0 ± 0.04
ITC −TΔS ([17]; V255I gp120 (HxBc2), 25 °C): 2.9 ± 1.5 kcal/mol
absolute impact of V255I substitution on enthalpy (ΔH) and entropy (TΔS) ([17]; mutant vs wild type gp120, ITC): 5 to 7 kcal/mol
ITC binding stoichiometry n [18]: 1.1 ± 0.08
ITC −TΔS [18]: 1.9 ± 0.93 kcal/mol
SPR k1 ([19]; PT association): 2.9 (M^−1 s^−1) × 10^–5
SPR k-1 ([19]; PT dissociation): 9.6 (s^−1) × 10^3
SPR k-2 [19, 22]: 0.25 (s^−1) × 10^3
SPR k2 [19, 23]: 7.0 (s^−1) × 10^3
disruption of affinity by escape mutations, SPR [20, 24]: four to sixfold
effect of escape mutations on de-isomerization kinetics, SPR [20, 24]: three to fourfold
SPR k1 ([20]; V255I gp120, PT association): 2.3 (M^−1 s^−1) × 10^–5
SPR k-1 ([20]; V255I gp120, PT dissociation): 14 (s^−1) × 10^3
SPR k-2 ([20]; V255I gp120, de-isomerization, three-state model): 0.72 (s^−1) × 10^3
SPR k2 ([20]; V255I gp120, isomerization, three-state model): 8.4 (s^−1) × 10^3
SPR k1 ([21]; PT association): 2.8 (M^−1 s^−1) × 10^–5
SPR k-1 ([21]; PT dissociation): 18 (s^−1) × 10^3
SPR k-2 [21, 22]: 1.0 (s^−1) × 10^3
SPR k2 [21, 23]: 9.0 (s^−1) × 10^3
concentration above which cytotoxicity was noted (CEM-GFP cells; 18 h): above 25 μM
cells dying (CEM-GFP cells; at a concentration of 125 μM): ~ 30%
pEC50 (BaL.01 viruses): 7.49
